Test results taken from patent US20240252614A1 (Pfizer, published 2024).

Legend:
hMPV B F WT Control = hMPV B F WT Control (hMPV B, UniProt Q6WB98 19-102); assay: BLI, 63C stress
Procedure: (§1) Conformation integrity of hMPV B F protein mutants were evaluated by a thermal stress experiment. Crude cell culture supernatants were normalized based on the results of the titer quantitation and then incubated for 1 hour at room temperature and two higher temperatures. For the testing of hMPV B single mutants, the two temperatures were 53° C. and 56° C. After the incubation, the protein mutants were probed with prefusion specific monoclonal antibody hMPV-2 by OCTET HTX. Anti-Human IgG Fc Capture (AHC) biosensors were first equilibrated in PB before being dipped into more PB for to establish the initial baseline. Biosensors were incubated with hMPV-2 before being equilibrated in PB to establish the experimental baseline. The mAb-bound biosensors were then dipped into the thermal stresses cell culture supernatants for 5 minutes.

hMPV117 = biological target: T1, hMPV117 (hMPV B, UniProt Q6WB98 19-102); assay: BLI, 63C stress
T1 construct: T150C-R156C, A459P
Procedure: as §1

hMPV118 = biological target: T2, hMPV118 (hMPV B, UniProt Q6WB98 19-102); assay: BLI, 63C stress
T2 construct: T49I, T150C-R156C
Procedure: as §1

hMPV120 = biological target: T3, hMPV120 (hMPV B, UniProt Q6WB98 19-102); assay: BLI, 63C stress
T3 construct: A140C-S149C, T411C-Q434C
Procedure: as §1

hMPV121 = biological target: T4, hMPV121 (hMPV B, UniProt Q6WB98 19-102); assay: BLI, 63C stress
T4 construct: L141C-A161C, T411C-Q434C
Procedure: as §1

hMPV122 = biological target: T5, hMPV122 (hMPV B, UniProt Q6WB98 19-102); assay: BLI, 63C stress
T5 construct: A140C-S149C, T411C-Q434C, A459P
Procedure: as §1

hMPV123 = biological target: T6, hMPV123 (hMPV B, UniProt Q6WB98 19-102); assay: BLI, 63C stress
T6 construct: A140C-S149C, G239A, T411C-Q434C
Procedure: as §1

hMPV124 = biological target: T7, hMPV124 (hMPV B, UniProt Q6WB98 19-102); assay: BLI, 63C stress
T7 construct: L141C-A161C, T411C-Q434C, A459P
Procedure: as §1

hMPV125 = biological target: T8, hMPV125 (hMPV B, UniProt Q6WB98 19-102); assay: BLI, 63C stress
T8 construct: L141C-A161C, G239A, T411C-Q434C
Procedure: as §1

hMPV126 = biological target: T9, hMPV126 (hMPV B, UniProt Q6WB98 19-102); assay: BLI, 63C stress
T9 construct: T49I, T150C-R156C, G239A, A459P
Procedure: as §1

hMPV127 = biological target: T10, hMPV127 (hMPV B, UniProt Q6WB98 19-102); assay: BLI, 63C stress
T10 construct: A140C-S149C, G239A, T411C-Q434C, A459P
Procedure: as §1

hMPV128 = biological target: T11, hMPV128 (hMPV B, UniProt Q6WB98 19-102); assay: BLI, 63C stress
T11 construct: T49I, A140C-S149C, G239A, T411C-Q434C, A459P
Procedure: as §1

hMPV129 = biological target: T12, hMPV129 (hMPV B, UniProt Q6WB98 19-102); assay: BLI, 63C stress
T12 construct: T49I, A140C-S149C, G239A, T365I, T411C-Q434C, A459P
Procedure: as §1

hMPV130 = biological target: T13, hMPV130 (hMPV B, UniProt Q6WB98 19-102); assay: BLI, 63C stress
T13 construct: L141C-A161C, G239A, T411C-Q434C, A459P
Procedure: as §1

hMPV131 = biological target: T14, hMPV131 (hMPV B, UniProt Q6WB98 19-102); assay: BLI, 63C stress
T14 construct: T49I, L141C-A161C, G239A, T411C-Q434C, A459P
Procedure: as §1

hMPV132 = biological target: T15, hMPV132 (hMPV B, UniProt Q6WB98 19-102); assay: BLI, 63C stress
T15 construct: L141C-A161C, S149T, G239A, T411C-Q434C, A459P
Procedure: as §1

hMPV133 = biological target: T16, hMPV133 (hMPV B, UniProt Q6WB98 19-102); assay: BLI, 63C stress
T16 construct: T49I, L141C-A161C, S149T, G239A, T411C-Q434C, A459P
Procedure: as §1

hMPV134 = biological target: T17, hMPV134 (hMPV B, UniProt Q6WB98 19-102); assay: BLI, 63C stress
T17 construct: T49I, L141C-A161C, S149T, G239A, T365I, T411C-Q434C, A459P
Procedure: as §1

hMPV135 = biological target: T18, hMPV135 (hMPV B, UniProt Q6WB98 19-102); assay: BLI, 63C stress
T18 construct: T49I, S149T, A459P
Procedure: as §1

hMPV136 = biological target: T19, hMPV136 (hMPV B, UniProt Q6WB98 19-102); assay: BLI, 63C stress
T19 construct: A140C-S149C, A459P
Procedure: as §1

hMPV137 = biological target: T20, hMPV137 (hMPV B, UniProt Q6WB98 19-102); assay: BLI, 63C stress
T20 construct: T49I, A140C-S149C
Procedure: as §1

hMPV138 = biological target: T21, hMPV138 (hMPV B, UniProt Q6WB98 19-102); assay: BLI, 63C stress
T21 construct: T49I, A140C-S149C, A459P
Procedure: as §1

hMPV139 = biological target: T22, hMPV139 (hMPV B, UniProt Q6WB98 19-102); assay: BLI, 63C stress
T22 construct: T49I, L141C-A161C, T411C-Q434C
Procedure: as §1

hMPV140 = biological target: T23, hMPV140 (hMPV B, UniProt Q6WB98 19-102); assay: BLI, 63C stress
T23 construct: T49I, L141C-A161C, T411C-Q434C, A459P
Procedure: as §1

hMPV142 = biological target: T24, hMPV142 (hMPV B, UniProt Q6WB98 19-102); assay: BLI, 63C stress
T24 construct: L141C-A161C, S149T, A459P
Procedure: as §1

hMPV144 = biological target: T25, hMPV144 (hMPV B, UniProt Q6WB98 19-102); assay: BLI, 63C stress
T25 construct: T49I, L141C-A161C, S149T, A459P
Procedure: as §1

hMPV075 = biological target: T26, hMPV075 (hMPV A, UniProt Q6WB98 19-102); assay: BLI, 50C stress, vs WT Control
T26 construct: L473F
Procedure: (§2) The OCTET HTX (Sartorius, Gottingen, Germany) instrument was used to evaluate the expression and conformational integrity for each mutant. All measurements were conducted at 30° C. temperature in 96-well black plates (Corning, Corning, NY) with a final volume of 240 μL per well at a constant agitation rate of 1000 RPM.
(§3) Conformation integrity of hMPV A F protein mutants were evaluated by thermal stress experiments. Crude cell culture supernatants were normalized based on the results of the titer quantitation and then incubated for 1 hour at room temperature and two higher temperatures. […] Anti-Human IgG Fc Capture (AHC) biosensors were first equilibrated in PB before being dipped into more PB to establish the initial baseline. […] The mAb-bound biosensors were then dipped into the thermal stressed cell culture supernatants for 5 minutes. The kinetics analysis was done by OCTET data analysis software (version 12.0, Sartorius) based on curve fitting of the entire associate step.

hMPV044 = biological target: T27, hMPV044 (hMPV A, UniProt Q6WB98 19-102); assay: BLI, 50C stress, vs WT Control
T27 construct: T411C-Q434C
Procedure: as §2, §3

hMPV046 = biological target: T28, hMPV046 (hMPV A, UniProt Q6WB98 19-102); assay: BLI, 50C stress, vs WT Control
T28 construct: A140C-S149C
Procedure: as §2, §3

B1: hMPV-2 mAb (antibody, V domains shown)
VH: QVQLQQSGAEVKKPGASVKVSCKASGYTFTSYGISWVRQAPGQGLEWMGWISGYNGNTNYAQTFQGTFTMTTDTSTSTAYMELRRLRSGDTAVYYCARDRYYASGSYNGMDVWGQGTTVTVSS
VL: QSALTQPPSASGAPGQRVTVSCSGSSSNVGSSSVYWYQQLPGTAPKLLIYRNNQRPSGVPDRFSGSKSGTSASLAISGLRSEDEADYYCAAWDDSLSGWVFGGGTKLTVLG
notes: human IgG1
- Response Shift (hMPV B F WT Control): 0.017 nm
- Response Shift (hMPV117): 0 nm
- Response Shift (hMPV118): 0.028 nm
- Response Shift (hMPV120): 0.502 nm
- Response Shift (hMPV121): 0.078 nm
- Response Shift (hMPV122): 0.665 nm
- Response Shift (hMPV123): 0.549 nm
- Response Shift (hMPV124): 0.065 nm
- Response Shift (hMPV125): 0.233 nm
- Response Shift (hMPV126): -0.075 nm
- Response Shift (hMPV127): 0.696 nm
- Response Shift (hMPV128): 0.746 nm
- Response Shift (hMPV129): 0.661 nm
- Response Shift (hMPV130): 0.079 nm
- Response Shift (hMPV131): 0.679 nm
- Response Shift (hMPV132): 0.606 nm
- Response Shift (hMPV133): 0.62 nm
- Response Shift (hMPV134): 0.733 nm
- Response Shift (hMPV135): -0.015 nm
- Response Shift (hMPV136): -0.027 nm
- Response Shift (hMPV137): 0.238 nm
- Response Shift (hMPV138): 0.156 nm
- Response Shift (hMPV139): 0.456 nm
- Response Shift (hMPV140): 0.747 nm
- Response Shift (hMPV142): 0.054 nm
- Response Shift (hMPV144): -0.015 nm
- Fold change vs WT (hMPV075): 2.3 fold
- Fold change vs WT (hMPV044): 2.6 fold
- Fold change vs WT (hMPV046): 1.7 fold
